Common to all, as to settings: both partners purified
In experiment [1] the target is T1, native sulfated human anionic trypsin purified from pancreatic juice (human, UniProt P07478 24-247, sulfated on Tyr154).
T1 construct: human anionic trypsin, the active enzyme cut from anionic trypsinogen by enteropeptidase; also called Hu2-SO4 (native); Hu2-SO4
Kind of experiment: equilibrium binding assay; equilibrium dissociation constant of ecotin on human trypsins, 15 h of incubation; further conditions not told for ecotin.

Experiment [2] deals with T2, nonsulfated human anionic trypsin purified from E. coli (human, UniProt P07478 24-247).
T2 construct: human anionic trypsin, the active enzyme cut from anionic trypsinogen (Hu2) by enteropeptidase; Not sulfated on Tyr154; also called Hu2 (E. coli); Hu2
T2 sequence (P07478 24-247): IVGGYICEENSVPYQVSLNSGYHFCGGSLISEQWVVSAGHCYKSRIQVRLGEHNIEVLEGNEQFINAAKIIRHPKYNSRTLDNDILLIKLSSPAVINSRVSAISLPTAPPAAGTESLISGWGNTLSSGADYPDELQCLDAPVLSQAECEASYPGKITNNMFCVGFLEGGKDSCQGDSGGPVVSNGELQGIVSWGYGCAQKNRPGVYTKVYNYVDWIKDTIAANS
The description is as above.

The target of experiment [3] is T1, native sulfated human anionic trypsin …. Kind of experiment: equilibrium binding assay (free trypsin activity on a fluorogenic substrate); fixed trypsin incubated with increasing SPINK1, 0.2 ml, 0.1 M Tris-HCl (pH 8.0), 150 mM NaCl, 1 mM CaCl2, 0.05% Tween 20, 15 h; free trypsin measured with Z-Gly-Pro-Arg-AMC; apparent KD, global fit of at least three experiments.

Experiment [4] has as its target T2, nonsulfated human anionic trypsin …. The experiment is described as above.
The target of experiment [5] is T1, native sulfated human anionic trypsin …. Kind of experiment: KD calculated from the rate constants (association and dissociation rate assays); KD(calc): equilibrium dissociation constant calculated from kon and koff of the activity-based rate assays.
Experiment [6] concerns the target T2, nonsulfated human anionic trypsin …. Described as above.
In experiment [7] the target is T1, native sulfated human anionic trypsin …. Nature of the experiment: discontinuous association rate assay (residual trypsin activity); 50 pM trypsin mixed with 500 pM SPINK1, 0.1 M Tris-HCl (pH 8.0), 150 mM NaCl, 1 mM CaCl2, 0.05% Tween 20, 23 °C; kon from the pseudo-first-order rate constant divided by the inhibitor concentration.
Experiment [8] concerns the target T2, nonsulfated human anionic trypsin …. Described as above.
The target of experiment [9] is T1, native sulfated human anionic trypsin …. Nature of the experiment: dissociation rate assay (recovery of trypsin activity after dilution of the complex); complex of 11 nM SPINK1 and 10 nM trypsin formed for 1 h at 23 °C, diluted to 50-200 pM with 0.6 mM Z-Gly-Pro-Arg-AMC, 0.1 M Tris-HCl (pH 8.0), 150 mM NaCl, 1 mM CaCl2, 0.05% Tween 20, room temperature, followed for 1 h.

Experiment [10] has as its target T2, nonsulfated human anionic trypsin …. Described as above.
Experiment [11] addresses T3, sulfated human anionic trypsin purified from the conditioned medium of transfected HEK 293T cells (human, UniProt P07478 24-247, sulfated on Tyr154).
T3 construct: human anionic trypsin, the active enzyme cut from anionic trypsinogen (Hu2) by enteropeptidase; also called Hu2-SO4 (HEK 293T); source: HEK 293T, cotransfected with tyrosylprotein sulfotransferase 2
Kind of experiment: equilibrium binding assay (free trypsin activity on a fluorogenic substrate); fixed trypsin incubated with increasing SPINK1, 0.2 ml, 0.1 M Tris-HCl (pH 8.0), 150 mM NaCl, 1 mM CaCl2, 0.05% Tween 20, 15 h; free trypsin measured with Z-Gly-Pro-Arg-AMC; apparent KD, global fit of at least three experiments.

Experiment [12] concerns the target T4, nonsulfated human anionic trypsin purified from the conditioned medium of transfected HEK 293T cells (human, UniProt P07478 24-247).
T4 construct: human anionic trypsin, the active enzyme cut from anionic trypsinogen (Hu2) by enteropeptidase; Sulfation prevented by sodium chlorate; also called Hu2 (HEK 293T); source: HEK 293T, transfected, grown with 50 mM sodium chlorate
The description is as above.

Experiment [13] deals with T1, native sulfated human anionic trypsin …. The experiment is described as above. This is another data set of the same source.
For experiment [14] the target is unchanged. Kind of experiment: equilibrium binding assay (free trypsin activity on a fluorogenic substrate); as the equilibrium assay but K41N SPINK1 incubated with trypsin for 1 h; 0.1 M Tris-HCl (pH 8.0), 150 mM NaCl, 1 mM CaCl2, 0.05% Tween 20; apparent KD.

T1 sequence (P07478 24-247): as above
T4 sequence (P07478 24-247): as above
T3 sequence (P07478 24-247): as above

B1: ecotin (natural protein)
chain: not shown
notes: source: E. coli BL21(DE3), overexpressed, purified from the periplasm
For B1, the Kd in [1] is 0.0195 nM; in experiment [2], 0.0032 nM.

B2: serine protease inhibitor Kazal type 1 (SPINK1), wildtype, C-terminal 10His tag (natural protein, human, UniProt P00995 24-79, looked up)
chain: DSLGREAKCYNELNGCTKIYDPVCGTDGNTYPNECVLCFENRKRQTSILIQKSGPC
notes: expressed from the SPINK1-minigene-1 construct with its own signal peptide; Residue numbers start at the initiator methionine; source: HEK 293T, transfected, purified from conditioned medium (nickel-nitrilotriacetic acid cartridge); not shown: 10His, C-terminal, kept
One may read the kon as a measure of how fast the partners come together. High values mean fast association, low ones slow association. By koff is commonly meant the first-order rate constant of dissociation. Low values mean slow dissociation, high ones fast dissociation. For B2, the Kd was 0.0367 nM in experiment [3]; 0.0003 nM in experiment [4]; 0.0075 nM in experiment [5]; 0.0001 nM in experiment [6]; 0.009 nM in experiment [11]; 0.0005 nM in experiment [12]. Further, the figures for the kon in experiment [7] and in [8] were 2.4e+06 M⁻¹ s⁻¹ and 3.8e+06 M⁻¹ s⁻¹, respectively. In addition, the koff in experiment [9] was 1.81e-05 s⁻¹; in experiment [10], 5e-07 s⁻¹.

B3: SPINK1 variant R65Q, C-terminal 10His tag (natural protein, human, UniProt P00995 24-79, looked up)
chain: DSLGREAKCYNELNGCTKIYDPVCGTDGNTYPNECVLCFENQKRQTSILIQKSGPC
notes: also called SPINK1 R65Q; p.R65Q; source: HEK 293T, transfected, purified from conditioned medium (nickel-nitrilotriacetic acid cartridge); not shown: 10His, C-terminal, kept
Take B3: the Kd in [13] came out at 0.006 nM.

B4: SPINK1 variant Q68R, C-terminal 10His tag (natural protein, human, UniProt P00995 24-79, looked up)
chain: DSLGREAKCYNELNGCTKIYDPVCGTDGNTYPNECVLCFENRKRRTSILIQKSGPC
notes: also called SPINK1 Q68R; p.Q68R; source: HEK 293T, transfected, purified from conditioned medium (nickel-nitrilotriacetic acid cartridge); not shown: 10His, C-terminal, kept
For the molecule B4, the Kd in experiment [13] is 0.027 nM.

B5: SPINK1 variant N37S, C-terminal 10His tag (natural protein, human, UniProt P00995 24-79, looked up)
chain: DSLGREAKCYNELSGCTKIYDPVCGTDGNTYPNECVLCFENRKRQTSILIQKSGPC
notes: also called SPINK1 N37S; p.N37S; source: HEK 293T, transfected, purified from conditioned medium (nickel-nitrilotriacetic acid cartridge); not shown: 10His, C-terminal, kept
Turning to B5, in experiment [13], the Kd was 0.0214 nM.

B6: SPINK1 variant K41N, C-terminal 10His tag (natural protein, human, UniProt P00995 24-79, looked up)
chain: DSLGREAKCYNELNGCTNIYDPVCGTDGNTYPNECVLCFENRKRQTSILIQKSGPC
notes: Its concentration was determined by SDS-PAGE and densitometry, not by active site titration; also called SPINK1 K41N; p.K41N; source: HEK 293T, transfected, purified from conditioned medium (nickel-nitrilotriacetic acid cartridge); not shown: 10His, C-terminal, kept
Regarding B6, in experiment [14], the Kd was determined as 1150 nM.

B7: SPINK1 variant P55S, C-terminal 10His tag (natural protein, human, UniProt P00995 24-79, looked up)
chain: DSLGREAKCYNELNGCTKIYDPVCGTDGNTYSNECVLCFENRKRQTSILIQKSGPC
notes: also called SPINK1 P55S; p.P55S; source: HEK 293T, transfected, purified from conditioned medium (nickel-nitrilotriacetic acid cartridge); not shown: 10His, C-terminal, kept
B7: the Kd in [13] is 0.123 nM.

B8: SPINK1 variant I42M, C-terminal 10His tag (natural protein, human, UniProt P00995 24-79, looked up)
chain: DSLGREAKCYNELNGCTKMYDPVCGTDGNTYPNECVLCFENRKRQTSILIQKSGPC
notes: also called SPINK1 I42M; p.I42M; source: HEK 293T, transfected, purified from conditioned medium (nickel-nitrilotriacetic acid cartridge); not shown: 10His, C-terminal, kept
As to B8, the Kd in experiment [13] turned out to be 0.258 nM.

B9: SPINK1 variant N34S, C-terminal 10His tag (natural protein, human, UniProt P00995 24-79, looked up)
chain: DSLGREAKCYSELNGCTKIYDPVCGTDGNTYPNECVLCFENRKRQTSILIQKSGPC
notes: also called SPINK1 N34S; p.N34S; source: HEK 293T, transfected, purified from conditioned medium (nickel-nitrilotriacetic acid cartridge); not shown: 10His, C-terminal, kept
As to B9, the Kd was 0.0167 nM in experiment [3]; 0.0004 nM in [4]; 0.0044 nM in experiment [5]; 0.0001 nM in [6]; 0.0063 nM in experiment [11]; 0.0008 nM in experiment [12]. Further, the kon in experiment [7] worked out at 3.1e+06 M⁻¹ s⁻¹; in experiment [8], 5.1e+06 M⁻¹ s⁻¹. Besides, the results for the koff in [9] and in experiment [10] were 1.36e-05 s⁻¹ and 4e-07 s⁻¹, respectively.
